Test results as given in patent US20200332020A1 (REGENTS OF THE UNIVERSITY OF MINNESOTA, published 2020).

What was measured:
[1] = target: T1, Recombinant HSPG2 domain 1 (first 247 amino acids of human HSPG2, C-terminal His tag) (human, UniProt P98160 22-247); assay: biolayer interferometry (BLItz), HSPG2 domain 1 on Ni-NTA biosensor
T1 construct: range 1-247; The stated range counts from residue 1, so it includes the signal peptide; also called HSPG2D1; perlecan domain 1; not shown: C-terminal His tag from the pcDNA 3.3+ vector
Protocol: We used biolayer inferometry (BLItz, Fortebio) to determine antibody binding kinetics specifically with purified HSPG2 domain 1. Ni-NTA biosensors were hydrated for 10 minutes in phosphate buffered saline. Following hydration, a 30 second baseline was established, followed by a 10-minute loading of the biosensor with 10 μg/mL HSPG2 domain 1 protein. The biosensor was then placed in PBS to establish baseline for 30 seconds. A two-step antibody association—dissociation cycle of 5 minutes each was then used to determine the kinetic association (kₐ) and dissociation (kd) rate constants. The equilibrium dissociation constant (KD) was calculated as KD=kd/kₐ
An important caveat with flow cytometry-based titration curves is the potential for avidity affects contributing to the binding, resulting in an ‘apparent KD’. Biophysical techniques are most often employed to generate the true, analytically relevant ‘intrinsic KD^{’} value. We chose biolayer interferometry as a means of assessing the kinetics of antibody-antigen binding with HSPG2D1.

[2] = target: HSPG2 (perlecan) on cells (human, UniProt P98160 22-4391); assay: apparent KD, flow cytometry titration on tumor cells

Kd [1]: 1790 nM | koff [1]: 0.0109 s⁻¹ | kon [1]: 6140 M⁻¹ s⁻¹ | Kd [2]: 125 to 275 nM
B1: Tw1S4_6 IgG (antibody, V domains shown)
VH: EVQLLESGGGLVQPGGSLRLSCAASGFTFSSYAMSWVRQAPGKGLEWVSAIREDGIKTYYADSVKGRFTISRDNSKNTLYLQMNSLRAEDTAVYYCAKRARRFDYWGQGTLVTVS
VL: DIQMTQSPSSLSASVGDRVTITCRASQSISSYLNWYQQKPGKAPKLLIYNASLLQSGVPSRFSGSGSGTDFTLTISSLQPEDFATYYCQQSLRSPITFGQGTKVEIKR
